The target in assay [1] is T1, His9-hMSR1 (human MSR1 extracellular domain) (Homo sapiens, UniProt P21757).
T1 construct: human MSR1 extracellular domain expressed with a N-terminal nonahistidine tag; His9 (nonahistidine) (N); purchased R&D Systems 2708-MS
T1 sequence (P21757 77-451 limits assumed): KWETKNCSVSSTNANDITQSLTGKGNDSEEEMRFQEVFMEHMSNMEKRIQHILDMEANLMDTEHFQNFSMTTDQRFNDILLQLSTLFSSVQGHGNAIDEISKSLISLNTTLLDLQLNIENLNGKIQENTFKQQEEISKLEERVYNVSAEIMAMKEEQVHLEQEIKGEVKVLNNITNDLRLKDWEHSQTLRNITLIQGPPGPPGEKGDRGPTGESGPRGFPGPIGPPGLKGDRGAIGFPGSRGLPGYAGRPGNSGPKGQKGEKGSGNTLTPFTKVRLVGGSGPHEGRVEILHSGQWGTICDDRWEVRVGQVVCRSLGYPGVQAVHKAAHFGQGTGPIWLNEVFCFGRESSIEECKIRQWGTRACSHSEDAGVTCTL
In words: Biacore T200 surface plasmon resonance binding kinetics of anti-MSR1 antibody-drug conjugates and parental antibodies. The following applies: 25° C.; for kd: * = no dissociation observed, kd manually fixed at 1.00E−05. As to the method: The MSR1 antibodies disclosed herein were conjugated to various liver X receptor (LXR) payloads or various steroid payloads. This example describes how equilibrium dissociation constant (KD) values for human MSR1 reagents binding to human anti-MSR1 antibody-drug conjugates and their corresponding unconjugated parental antibodies were determined using a real-time surface plasmon resonance-based Biacore T200 biosensor.
All binding studies were performed in 10 mM HEPES, 300 mM NaCl, 3 mM EDTA, and 0.05% v/v Surfactant Tween-20, pH 7.4 (HBS-ET) running buffer at 25° C. The Biacore CM4 sensor chip surface was first derivatized by amine coupling with the goat anti-human Fcγ specific polyclonal antibody (Jackson ImmunoResearch Laboratories, Cat #BR-1008-39) to capture anti-MSR1 monoclonal antibodies. Binding studies were performed on human MSR1 extracellular domain expressed with a N-terminal nonahistidine tag (His9-hMSR1; R&D Systems, Cat #2708-MS).
The association rate (ka) and dissociation rate (kd) were determined by fitting the real-time binding sensorgrams to a 1:1 binding model with mass transport limitation using Scrubber 2.0c curve-fitting software. Binding dissociation equilibrium constant (KD) and dissociative half-life (t½) were calculated from the kinetic rates as: […]
Binding kinetics parameters for His9-hMSR1 binding to different anti-MSR1 antibody-LXR ADCs and their unconjugated parental antibodies at 25° C. are shown in Table 19. “LP1” represents a linker-payload for which the payload structure is provided in Example 11.
The binding studies were repeated with anti-MSR1 antibody H1H21234-N297Q and steroid linker payloads (LPs). “LP3” represents a linker-payload for which the structure is provided in Example 23, and “LP13” represents a linker-payload for which the structure is provided in Example 24.

Assay [2] has as its system LXR (THP1/LXR-Luc cells). In words: LXR-luciferase reporter bioassay (Example 31). The settings on record: 48 hours; for EC50: differentiated THP1/LXR-Luc cells; for S/N: signal to noise, ratio of RLU of standard one over standard eight. The class given is cell-based, human. An excerpt: Generation of assay cell line. To test the efficacy of anti-MSR1 antibody-LXR conjugates in vitro, a cell-based LXR responsive luciferase reporter assay was developed. To generate the assay cell line, a LXR regulated luciferase reporter gene [Cignal Lenti LXR Reporter (luc) kit (Qiagen, Cat #CLS-001 L)] was transduced into THP1 cells, and cells were selected for two weeks in puromycin. The lentivirus expresses the firefly luciferase gene under the control of a minimal CMV promoter and tandem repeats of the LXR transcriptional response element. The resulting cell line is referred to as THP1/LXR-Luc cells.
Assay protocol. THP1/LXR-Luc cells were seeded onto 96 well plates at 40,000 cells/well in media containing RPMI supplemented with 10% FBS and pencillin/streptomycin and subsequently differentiated with 200 nM Phorbol Myristate Acetate (PMA) for 3 days. After the 3-day differentiation period, three-fold serial dilutions of antibody drug conjugates, unconjugated antibodies, or free payloads in fresh media were added to the cells at final concentration ranging from 100 nM to 0.01 nM. Media alone served as a blank control. Forty-eight hours later, luciferase activity was determined after the addition of One-Glo™ reagent (Promega, Cat #E6130) to each well. Relative light units (RLUs) were measured on a Victor luminometer (PerkinElmer) and EC50 values were determined using a four-parameter logistic equation over a 10-point dose response curve (GraphPad Prism). The signal to noise (S/N) was determined by calculating the ratio of RLU of standard one over RLU of standard eight for each of the unconjugated anti-MSR1 antibodies or free payloads. “LP #” represents a linker-payload for which the corresponding structures are provided elsewhere herein, and “P #” represents a payload for which the corresponding structures are provided elsewhere herein.

The mark [3] stands for this setting: Table 19, antibody-LXR ADCs and unconjugated antibodies.

Experimental findings from US12497460B2, “Anti-MSR1 antibodies and methods of use thereof” (REGENERON PHARMACEUTICALS, INC., priority 2018, dated 2025) are described below.

B1: H1H21234N-N297Q-LP3 (conjugate)
VH: QVQLQESGPGLVKPSETLSLTCTVTGGSISRNYWSWIRQPPGKGLEWIGYIYYSGSIDYNPSLKSRVTISVDTSKNQFSLKLSSMTAADTAVYYCARDRWNWKYGMDVWGQGTTVIVSS
VL: EIVLTQSPGTLSLSPGERATLSCRASQTVRNNYLAWYHQKPGQAPRLLIYGASSRATGIPDRFSGSGSGTDFTLTISRLEPEDFTVYYCHQYGNSPWTFGQGTKMEIKR
As for B1, the ka in assay [1] (Table 20, antibody-steroid ADCs and unconjugated antibody) is 417000 M⁻¹ s⁻¹. In addition, in assay [1] (Table 20), the kd is 1e-05 s⁻¹.

B2: H1H27731P-N297Q-LP1 (conjugate)
VH: QLQLQESGPGLVKPSETLSLTCTVSGGSISRISYYWGWIRQPPGKGLEWIGSIYDSGSTYYNPSLKSRVTISIDTSKNQFSLKLSSVTAADTAVYYCVRYSSSSAFAFDYWGQGTLVTVSS
VL: DIQMTQSPSSVSASVGDRVTITCRASQGISSWLAWYQQKPGKAPKLLIYAASSLQSGVPSRFSGSGSGTDFTLTISSLQPEDFATYYCQQANSFPFTFGPGTKVDIKR
Consider B2, for which the ka in assay [1] (setting [3]) amounted to 128000 M⁻¹ s⁻¹. Also, the kd in assay [1] (Table 19) is given as 1.00E−05* s^−1. In assay [2], the EC50 turned out to be 1.46 nM and the S/N came out at 15.5.

B3: H1H27754P-N297Q-LP1 (conjugate)
VH: EVQLVESGGGLVQPGGSLRLSCAASGFTFRTYAMTWVRQAPGKGLDWVSAITGDGGNTYYADSVKGRFTISRDNSKNTLYLQMNSLRAEDTAIYYCAKDQRFSFALYYFDYWGQGTLVTVSS
VL: DIQMTQSPSSVSASVGDRVTITCRASQGISSWLAWYQQKPGNAPKLLIYAAFSLQSGVPSRFSGSGSGTDFTLTISSLQPEDFATYYCQQANNFPWTFGQGTKVEIKR
For B3, the ka in assay [1] (setting [3]) was found to be 177000 M⁻¹ s⁻¹. Moreover, in assay [1] (Table 19), the kd is 1.00E−05* s^−1. Moreover, in assay [2], the EC50 is 1.3 nM and the S/N was found to be 17.3.

B4: H1H27747P-N297Q-LP1 (conjugate)
VH: QVQLVESGGAVVQPGRSLRLSCAASGFTFSYYGMHWVRQAPGKGLEWVAVISYDGSKKYYADSVKGRFTISRDNSKNTLYLQMNSLRAEDTAVYYCAKDLTVDFYYGMDVWGQGTTVTVSS
VL: DIQMTQSPSSVSASVGDRVTITCRASQGISSWLAWYQQKPGKAPKLLIYATSSLQSGAPSRFSGSGSGTDFTLTISSLQPEDFATYFCQQANSFPYTFGQGTKLEIKR
Consider B4, for which the ka in assay [1] (setting [3]) turned out to be 136000 M⁻¹ s⁻¹. In assay [1] (Table 19), the kd was determined as 0.000203 s⁻¹. Further, in assay [2], the EC50 was 4.77 nM and the S/N is 20.6.

B5: H1H27734P-N297Q-LP1 (conjugate)
VH: EVQLVESRGGLVQPGGSLRLSCAASGFTFSSYAMSWVRQAPGKGLEWVSAISGSGGSTFYADSVKGRFTISRDNSKNTVYLQMNSLRAEDTAVYYCAKALVLRFLEWLGDYWGQGTLVTVSS
VL: DIQMTQSPSTLSASVGDRVTITCRASQSISSWLAWFQQKPGKAPKLLIYKASSLESGVPSRFSGSGSGTEFTLTISSLQPDDFATYYCQQYKSYWTFGQGTKVEIKR
In the case of B5, in assay [1] (setting [3]), the ka worked out at 69300 M⁻¹ s⁻¹. Further, the kd in assay [1] (Table 19) amounted to 0.000449 s⁻¹. Besides, in assay [2], the EC50 stood at 5.19 nM and the S/N amounted to 17.8.

B6: H1H27729P-N297Q-LP1 (conjugate)
VH: QVQLVESGGGLVKPGGSLRLSCAASGFIFSDYYMSWIRQAPGKGLEWVSYISSSGTTIYGDSVKGRFTMSRDNAKNSLYLQMNSLRAEDTAVYYCARNYALFDYWGQGTLVTVSS
VL: DIQMTQSPSSLSASVGDRVTITCQASQDISKYLNWYQQKPGKAPKLLIYYTSNLETGVPSRFSGSGSGTDFTFTISSLQPEDIATYYCHQSDYLPFTFGPGTKVDIKR
Regarding B6, in assay [1] (setting [3]), the ka worked out at 54700 M⁻¹ s⁻¹. Moreover, the kd in assay [1] (Table 19) is 0.000718 s⁻¹. In assay [2], it took 1.64 nM to reach a half-maximal effect (EC50) and the S/N is 14.5.

B7: H1H27739P-N297Q-LP1 (conjugate)
VH: EVQLVESGGGLVQPGGSLRLSCTASGFTFSSYAMSWVRQAPGKGLEWVSAISGTGSSTYFTDSVKGRFAISRDNSKNTLYLQMNSLRAEDTAVYYCAKDGEWLSTVTLFDYWGQGTLVTVSS
VL: EIVMTQSPATLSVSPGERATLSCRASQSVSSNLAWYQQKPGQAPRLLIYGASTRATGIPARFSGSGSGTDFTLTISSLQSEDFALYYCQQYFIWPPHPTFGPGTKVDIKR
With B7, the ka in assay [1] (setting [3]) worked out at 88800 M⁻¹ s⁻¹. In assay [1] (Table 19), the kd was 0.000722 s⁻¹. In assay [2], the response was half-maximal at 1.6 nM (EC50) and the S/N stood at 21.0.
